Laboratory results published in patent US20260209348A1 (University of California, published 2026).
Like-named read-outs stand apart in the source and are kept apart here. Values belong to the binder of their own block, whether it stands above or below them.

Legend:
human ROR2 [1] = target: T1, human ROR2 (human, UniProt Q01974 34-403, limits assumed); assay: SPR
How it was run: (§1)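 Values are dissociation constants (Kd, nM) for binding to human ROR2, measured by surface plasmon resonance. The monoclonal antibodies tested were humanized anti-human ROR2 antibodies built from murine complementarity-determining regions placed into human acceptor frameworks, with a human IgG1 constant region. Antigen format, concentrations, temperature, buffer and replicates are not given.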

human ROR2 [2] = target: T1, human ROR2; assay: SPR; remark: listed apart in the source
How it was run: as §1

recombinant ROR1 = recombinant ROR1 (Homo sapiens (Human), UniProt Q01973 30-406); assay: dot blot on nylon membrane, anti-human IgG-HRP
recombinant ROR1, sequence (Q01973 30-406 limits assumed): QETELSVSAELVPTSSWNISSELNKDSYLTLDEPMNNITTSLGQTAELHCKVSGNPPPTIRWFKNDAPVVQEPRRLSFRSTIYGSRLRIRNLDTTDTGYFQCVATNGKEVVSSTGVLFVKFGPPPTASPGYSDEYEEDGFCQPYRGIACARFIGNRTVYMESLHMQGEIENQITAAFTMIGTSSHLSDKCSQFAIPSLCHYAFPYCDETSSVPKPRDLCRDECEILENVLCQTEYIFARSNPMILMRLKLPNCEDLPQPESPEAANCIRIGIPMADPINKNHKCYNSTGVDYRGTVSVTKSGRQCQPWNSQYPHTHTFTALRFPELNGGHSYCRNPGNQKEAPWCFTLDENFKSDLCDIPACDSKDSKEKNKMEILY

[3] = target: T2, recombinant mouse ROR2 (extracellular portion) (mouse, UniProt Q9Z138 34-403); assay: dot blot on nylon membrane, anti-human IgG-HRP
T2 construct: also called mROR2
T2 sequence (Q9Z138 other isoform, or with tags, fused parts or gaps limits assumed): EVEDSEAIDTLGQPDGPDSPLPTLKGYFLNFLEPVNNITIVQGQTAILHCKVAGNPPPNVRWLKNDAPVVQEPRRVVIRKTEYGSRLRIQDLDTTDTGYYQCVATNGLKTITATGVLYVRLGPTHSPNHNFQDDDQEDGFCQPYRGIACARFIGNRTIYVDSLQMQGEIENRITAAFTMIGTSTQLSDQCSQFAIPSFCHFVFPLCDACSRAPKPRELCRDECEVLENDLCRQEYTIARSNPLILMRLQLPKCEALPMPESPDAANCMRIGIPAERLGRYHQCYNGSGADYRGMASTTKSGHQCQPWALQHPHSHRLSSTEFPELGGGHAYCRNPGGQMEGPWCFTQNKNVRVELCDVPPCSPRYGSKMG

[4] = target: T3, recombinant human ROR2 H349R (human, UniProt Q01974 34-403); assay: dot blot on nylon membrane, anti-human IgG-HRP
T3 construct: Human residue replaced with the mouse residue
T3 sequence (Q01974 34-403 H349R limits assumed): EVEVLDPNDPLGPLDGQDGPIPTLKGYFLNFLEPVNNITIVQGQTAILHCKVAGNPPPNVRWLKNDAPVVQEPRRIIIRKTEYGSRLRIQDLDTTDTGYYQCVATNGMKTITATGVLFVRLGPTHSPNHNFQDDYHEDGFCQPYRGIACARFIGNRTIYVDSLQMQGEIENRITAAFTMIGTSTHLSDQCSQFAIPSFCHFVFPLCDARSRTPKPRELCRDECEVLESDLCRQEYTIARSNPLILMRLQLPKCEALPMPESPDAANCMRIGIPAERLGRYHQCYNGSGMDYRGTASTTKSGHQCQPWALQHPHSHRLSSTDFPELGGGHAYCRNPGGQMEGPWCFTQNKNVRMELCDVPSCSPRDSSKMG

[5] = target: recombinant human ROR2 D354E (human, UniProt Q01974 34-403); assay: dot blot on nylon membrane, anti-human IgG-HRP
recombinant human ROR2 D354E, sequence (Q01974 34-403 D354E limits assumed): as the sequence (Q01974 34-403 H349R limits assumed) above, with R316H, D321E counted along it

human ROR2 [6] = target: T1, human ROR2; assay: SPR; remark: listed apart in the source

T1 sequence (Q01974 34-403 limits assumed): as the sequence (Q01974 34-403 H349R limits assumed) above, with R316H counted along it

Kd (human ROR2 [1]): 0.318 nM | Kd (human ROR2 [2]): 0.318 nM | binding result (recombinant ROR1): no binding | binding result [3]: no binding | binding result [4]: no binding | binding result [5]: no binding
B1: h6E6-007 (antibody, human IgG1, V domains shown)
VH: EVQLVESGGGLVKPGGSLRLSCAASGFTFSGYGLSWVRQAPGKGLEWVSTISSGGGYTHYAPSVKGRFTISRDNAKNSLYLQMNSLRAEDTAVYYCARHPRDFSYAQDYWGQGTTVTVSS
VL: EIVMTQSPATLSVSPGERATLSCKASQDVGHYVAWYQQKPGQAPRLLIYWASTRATGIPARFSGSGSGTEFTLTISSLQSEDFAVYYCQQYNIYPWTFGQGTKVEIK
notes: human IgG1; also called clone 7

binding result (human ROR2 [6]): no binding
B2: grafted humanized 6E6: VH3-11*03 (IMGT) + VK1-8*01 (IMGT) (antibody, V domains shown)
VH: QVQLLESGGGLVKPGGSLRLSCAASGFTFSNYGMSWIRQAPGKGLEWVSYISSGGGYTNYADSVKGRFTISRDNAKNSLYLQMNSLRAEDTAVYYCARHPRDFSYAMDYWGQGTTVTVSS
VL: AIRMTQSPSSFSASTGDRVTITCRASQDVGHYLAWYQQKPGKAPKLLIYWASTLQSGVPSRFSGSGSGTDFTLTISCLQSEDFATYYCQQYNIYPWTFGQGTKVEIK
notes: expressed as IgG

binding result (human ROR2 [6]): no binding
B3: grafted humanized 6E6: VH3-21*01 (IMGT) + VK3-15*01 (IMGT) (antibody, V domains shown)
VH: EVQLVESGGGLVKPGGSLRLSCAASGFTFSNYGMNWVRQAPGKGLEWVSSISSGGGYTYYADSVKGRFTISRDNAKNSLYLQMNSLRAEDTAVYYCARHPRDFSYAMDYWGQGTTVTVSS
VL: EIVMTQSPATLSVSPGERATLSCRASQDVGHYLAWYQQKPGQAPRLLIYWASTRATGIPARFSGSGSGTEFTLTISSLQSEDFAVYYCQQYNIYPWTFGQGTKVEIK
notes: expressed as IgG

Kd (human ROR2 [6]): 0.58 nM
B4: grafted humanized 6E6: VH3-21*01 (extended) + VK3-15*01 (IMGT) (antibody, V domains shown)
VH: EVQLVESGGGLVKPGGSLRLSCAASGFTFSNYGMSWVRQAPGKGLEWVSTISSGGGYTHYVDSVKGRFTISRDNAKNSLYLQMNSLRAEDTAVYYCARHPRDFSYAMDYWGQGTTVTVSS
VL: EIVMTQSPATLSVSPGERATLSCRASQDVGHYLAWYQQKPGQAPRLLIYWASTRATGIPARFSGSGSGTEFTLTISSLQSEDFAVYYCQQYNIYPWTFGQGTKVEIK
notes: expressed as IgG

Kd (human ROR2 [1]): 0.079 nM | Kd (human ROR2 [2]): 0.079 nM | binding result (recombinant ROR1): no binding | binding result [3]: no binding | binding result [4]: no binding | binding result [5]: no binding
B5: h6E6-029 (antibody, human IgG1, V domains shown)
VH: EVQLVESGGGLVKPGGSLRLSCAASGFTFSHYGVSWVRQAPGKGLEWVSTISSGGGYTHYAQSVKGRFTISRDNAKNSLYLQMNSLRAEDTAVYYCARHPRDFSYAQDYWGQGTTVTVSS
VL: EIVMTQSPATLSVSPGERATLSCKASQDVGHYVAWYQQKPGQAPRLLIYWASTRHTGIPARFSGSGSGTEFTLTISSLQSEDFAVYYCQQYNIYPWTFGQGTKVEIK
notes: human IgG1; also called clone 29

Kd (human ROR2 [6]): 64 nM
B6: grafted humanized 6E6: VH3-11*03 (IMGT) + VK3-15*01 (IMGT) (antibody, V domains shown)
VH: QVQLLESGGGLVKPGGSLRLSCAASGFTFSNYGMSWIRQAPGKGLEWVSYISSGGGYTNYADSVKGRFTISRDNAKNSLYLQMNSLRAEDTAVYYCARHPRDFSYAMDYWGQGTTVTVSS
VL: EIVMTQSPATLSVSPGERATLSCRASQDVGHYLAWYQQKPGQAPRLLIYWASTRATGIPARFSGSGSGTEFTLTISSLQSEDFAVYYCQQYNIYPWTFGQGTKVEIK
notes: expressed as IgG

Kd (human ROR2 [6]): 1.1 nM
B7: grafted humanized 6E6: VH3-11*03 (extended) + VK3-15*01 (IMGT) (antibody, V domains shown)
VH: QVQLLESGGGLVKPGGSLRLSCAASGFTFSNYGMSWIRQAPGKGLEWVSTISSGGGYTHYVDSVKGRFTISRDNAKNSLYLQMNSLRAEDTAVYYCARHPRDFSYAMDYWGQGTTVTVSS
VL: EIVMTQSPATLSVSPGERATLSCRASQDVGHYLAWYQQKPGQAPRLLIYWASTRATGIPARFSGSGSGTEFTLTISSLQSEDFAVYYCQQYNIYPWTFGQGTKVEIK
notes: expressed as IgG
